From patent publication US20240301064A1 (published 2024)

How the values were obtained:
[1] = target: PD-1 on PD-1 reporter Jurkat cells; assay: cell-based or functional assay
human MAdCAM [2] = target: T1, human MAdCAM (human, UniProt Q13477 19-317, limits assumed); assay: BLI Octet
T1 construct: also called huMAdCAM
T1 sequence (looked up): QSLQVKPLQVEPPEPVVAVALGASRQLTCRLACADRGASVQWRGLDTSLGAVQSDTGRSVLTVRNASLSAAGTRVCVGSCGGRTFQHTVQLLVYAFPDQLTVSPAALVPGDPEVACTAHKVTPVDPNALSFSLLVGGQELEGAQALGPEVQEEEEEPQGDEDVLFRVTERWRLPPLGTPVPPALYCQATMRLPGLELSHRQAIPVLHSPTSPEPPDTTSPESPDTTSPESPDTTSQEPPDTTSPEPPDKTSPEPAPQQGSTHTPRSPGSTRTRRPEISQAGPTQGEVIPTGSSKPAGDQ
Description: (§1) Anti-human Fc biosensors were equilibrated in assay buffer (1% BSA in 1×PBS with 0.05% Tween-20) for 10 minutes before the experiment was set-up. Test articles were diluted to 5 μg/mL in assay buffer and 200 μL pipetted to 96 well plate. Human MAdCAM was titrated down, two-fold dilutions (starting at 600 nM as the highest concentration, 7-point dilution). Experiment was run using data acquisition software version 10.0 for OCTET96 RED. Test articles were captured using anti-human Fc biosensors for 180 s. Biosensors loaded with test articles were then equilibrated in assay buffer for 120 s. Association was performed in wells with huMAdCAM for 180 seconds. Dissociation was performed in wells with assay buffer for 180 s. Kinetic parameters (kon and kdis) and dissociation constant (KD) were calculated from a 1:1 global fit model using the data analysis software of the Octet96 RED software version 10.

human MAdCAM [3] = target: T1, human MAdCAM; assay: BLI Octet, against PRNT1
Description: as §1

B1: PMAB61 (bispecific antibody, human IgG1, kappa)
heavy: EVQLVQSGAEVKKPGASVKVSCKASGYSFTSYYMHWVRQAPGQGLEWMGIINPSGGSTSYAQKFQGRVTMTRDTSTSTVYMELSSLRSEDTAVYYCASGWVYWGQGTLVTVSSASTKGPSVFPLAPSSKSTSGGTAALGCLVKDYFPEPVTVSWNSGALTSGVHTFPAVLQSSGLYSLSSVVTVPSSSLGTQTYICNVNHKPSNTKVDKKVEPKSCDKTHTCPPCPAPEAAGAPSVFLFPPKPKDTLMISRTPEVTCVVVDVSHEDPEVKFNWYVDGVEVHNAKTKPREEQYNSTYRVVSVLTVLHQDWLNGKEYKCKVSNKALPAPIEKTISKAKGQPREPQVYTLPPSREEMTKNQVSLTCLVKGFYPSDIAVEWESNGQPENNYKTTPPVLDSDGSFFLYSKLTVDKSRWQQGNVFSCSVMHEALHNHYTQKSLSLSPGGGGGSGGGGSGGGGSEVQLLESGGGLVQPGGSLRLSCAASGFTFSSYWMHWVRQAPGKGLEWVSYISGSGGYTNYADSVKGRFTISRDNSKNTLYLQMNSLRAEDTAVYYCARDRPYYYDMDVWGKGTTVTVSSGGGGSGGGGSGGGGSGGGGSDIQMTQSPSSLSASVGDRVTITCRASQSISSSLAWYQQKPGKAPKLLIYAASSLQSGVPSRFSGSGSGTDFTLTISSLQPEDFATYYCQQYKSYPVTFGQGTKVEIK
light: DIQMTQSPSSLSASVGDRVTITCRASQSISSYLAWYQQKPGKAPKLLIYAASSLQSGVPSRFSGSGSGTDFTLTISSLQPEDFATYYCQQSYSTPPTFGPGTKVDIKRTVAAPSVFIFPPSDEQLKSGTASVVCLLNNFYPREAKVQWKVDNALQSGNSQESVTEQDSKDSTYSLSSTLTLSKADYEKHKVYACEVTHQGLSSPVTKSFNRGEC
- PD-1 reporter Jurkat cells on test-article-loaded MAdCAM-expressing CHO cells; EC50 [1]: 3.02 nM
- SHP-2 recruitment, Ig-tethered test article, PD-1 reporter Jurkat cells; EC50 (second experiment) [1]: 4.45 nM

B2: MIAB169 (antibody, human IgG1, kappa)
heavy: EVQLLESGGGLVQPGGSLRLSCAASGFTFSDFWMHWVRQAPGKGLEWISYISGDSGYTNYADSVKGRFTISRDNSKNTLYLQMNSLRAEDTAVYYCARDRPYYYIMDVWGKGTTVTVSSASTKGPSVFPLAPSSKSTSGGTAALGCLVKDYFPEPVTVSWNSGALTSGVHTFPAVLQSSGLYSLSSVVTVPSSSLGTQTYICNVNHKPSNTKVDKKVEPKSCDKTHTCPPCPAPEAAGAPSVFLFPPKPKDTLMISRTPEVTCVVVDVSHEDPEVKFNWYVDGVEVHNAKTKPREEQYNSTYRVVSVLTVLHQDWLNGKEYKCKVSNKALPAPIEKTISKAKGQPREPQVYTLPPSREEMTKNQVSLTCLVKGFYPSDIAVEWESNGQPENNYKTTPPVLDSDGSFFLYSKLTVDKSRWQQGNVFSCSVMHEALHNHYTQKSLSLSPGGGGGSAPTSSSTKKTQLQLEHLLLDLQMILNGINNYKNPKLTRMLTFKFYMPKKATELKHLQCLEEELKPLEEALNLAPSKNFHLRPRDLISDINVIVLELKGSETTFMCEYADETATIVEFINRWITFSQSIISTLT
light: DIQMTQSPSSLSASVGDRVTITCRASQSVSRSLAWYQQKPGKAPKLLIYAASSLQSGVPSRFSGSGSGTDFTLTISSLQPEDFATYYCQQYKSYPVTFGQGTKVEIKRTVAAPSVFIFPPSDEQLKSGTASVVCLLNNFYPREAKVQWKVDNALQSGNSQESVTEQDSKDSTYSLSSTLTLSKADYEKHKVYACEVTHQGLSSPVTKSFNRGEC
notes: also called MIAB169-CHO; MIAB169-HEK
- fold lower affinity than parent PRNT1 (human MAdCAM [2]): 10 fold

B3: MIAB184 (antibody, human IgG1, kappa)
heavy: EVQLLESGGGLVQPGGSLRLSCAASGFTFSSYWMHWVRQAPGKGLEWVSAISGSGGSTYYADSVKGRFTISRDNSKNTLYLQMNSLRAEDTAVYYCARDRPYYYYMDVWGKGTTVTVSSASTKGPSVFPLAPSSKSTSGGTAALGCLVKDYFPEPVTVSWNSGALTSGVHTFPAVLQSSGLYSLSSVVTVPSSSLGTQTYICNVNHKPSNTKVDKKVEPKSCDKTHTCPPCPAPEAAGAPSVFLFPPKPKDTLMISRTPEVTCVVVDVSHEDPEVKFNWYVDGVEVHNAKTKPREEQYNSTYRVVSVLTVLHQDWLNGKEYKCKVSNKALPAPIEKTISKAKGQPREPQVYTLPPSREEMTKNQVSLTCLVKGFYPSDIAVEWESNGQPENNYKTTPPVLDSDGSFFLYSKLTVDKSRWQQGNVFSCSVMHEALHNHYTQKSLSLSPGGGGGSAPTSSSTKKTQLQLEHLLLDLQMILNGINNYKNPKLTRMLTFKFYMPKKATELKHLQCLEEELKPLEEALNLAPSKNFHLRPRDLISDINVIVLELKGSETTFMCEYADETATIVEFINRWITFSQSIISTLT
light: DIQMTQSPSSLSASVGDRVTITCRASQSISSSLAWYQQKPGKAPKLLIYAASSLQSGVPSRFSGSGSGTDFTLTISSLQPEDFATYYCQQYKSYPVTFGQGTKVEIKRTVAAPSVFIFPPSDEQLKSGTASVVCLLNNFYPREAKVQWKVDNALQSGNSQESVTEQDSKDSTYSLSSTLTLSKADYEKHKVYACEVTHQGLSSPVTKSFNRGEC
notes: also called MIAB184-001
- fold reduction of MAdCAM affinity (human MAdCAM [3]): 40 fold

B4: MIAB183 (antibody, human IgG1, kappa)
heavy: EVQLLESGGGLVQPGGSLRLSCAASGFTFSSYWMHWVRQAPGKGLEWVSAISGSGGSTYYADSVKGRFTISRDNSKNTLYLQMNSLRAEDTAVYYCARDRPYYYYMDVWGKGTTVTVSSASTKGPSVFPLAPSSKSTSGGTAALGCLVKDYFPEPVTVSWNSGALTSGVHTFPAVLQSSGLYSLSSVVTVPSSSLGTQTYICNVNHKPSNTKVDKKVEPKSCDKTHTCPPCPAPEAAGAPSVFLFPPKPKDTLMISRTPEVTCVVVDVSHEDPEVKFNWYVDGVEVHNAKTKPREEQYNSTYRVVSVLTVLHQDWLNGKEYKCKVSNKALPAPIEKTISKAKGQPREPQVYTLPPSREEMTKNQVSLTCLVKGFYPSDIAVEWESNGQPENNYKTTPPVLDSDGSFFLYSKLTVDKSRWQQGNVFSCSVMHEALHNHYTQKSLSLSPGGGGGSAPTSSSTKKTQLQLEHLLLDLQMILNGINNYKNPKLTRMLTFKFYMPKKATELKHLQCLEEELKPLEEALNLAPSKNFHLRPRDLISDINVIVLELKGSETTFMCEYADETATIVEFINRWITFSQSIISTLT
light: DIQMTQSPSSLSASVGDRVTITCRASQSVSSSLAWYQQKPGKAPKLLIYAASSLQSGVPSRFSGSGSGTDFTLTISSLQPEDFATYYCQQYKSYPVTFGQGTKVEIKRTVAAPSVFIFPPSDEQLKSGTASVVCLLNNFYPREAKVQWKVDNALQSGNSQESVTEQDSKDSTYSLSSTLTLSKADYEKHKVYACEVTHQGLSSPVTKSFNRGEC
notes: also called MIAB183-001
- fold reduction of MAdCAM affinity (human MAdCAM [3]): 20 fold

B5: MIAB182 (antibody, human IgG1, kappa)
heavy: EVQLLESGGGLVQPGGSLRLSCAASGFTFSSYWMHWVRQAPGKGLEWVSAISGSGGSTYYADSVKGRFTISRDNSKNTLYLQMNSLRAEDTAVYYCARDRPYYYYMDVWGKGTTVTVSSASTKGPSVFPLAPSSKSTSGGTAALGCLVKDYFPEPVTVSWNSGALTSGVHTFPAVLQSSGLYSLSSVVTVPSSSLGTQTYICNVNHKPSNTKVDKKVEPKSCDKTHTCPPCPAPEAAGAPSVFLFPPKPKDTLMISRTPEVTCVVVDVSHEDPEVKFNWYVDGVEVHNAKTKPREEQYNSTYRVVSVLTVLHQDWLNGKEYKCKVSNKALPAPIEKTISKAKGQPREPQVYTLPPSREEMTKNQVSLTCLVKGFYPSDIAVEWESNGQPENNYKTTPPVLDSDGSFFLYSKLTVDKSRWQQGNVFSCSVMHEALHNHYTQKSLSLSPGGGGGSAPTSSSTKKTQLQLEHLLLDLQMILNGINNYKNPKLTRMLTFKFYMPKKATELKHLQCLEEELKPLEEALNLAPSKNFHLRPRDLISDINVIVLELKGSETTFMCEYADETATIVEFINRWITFSQSIISTLT
light: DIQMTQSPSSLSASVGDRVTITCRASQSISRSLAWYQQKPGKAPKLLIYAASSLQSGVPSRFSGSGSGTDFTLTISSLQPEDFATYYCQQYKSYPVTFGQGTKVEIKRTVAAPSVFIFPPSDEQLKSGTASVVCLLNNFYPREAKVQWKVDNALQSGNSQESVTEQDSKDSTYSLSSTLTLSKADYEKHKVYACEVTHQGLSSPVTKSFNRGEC
notes: also called MIAB182-001
- fold reduction of MAdCAM affinity (human MAdCAM [3]): 10 fold
